The target in test [1] is T1, CD25 (R&D systems cat. #223-2A/CF) (UniProt P01589 22-213, limits assumed).
T1 construct: Bought soluble protein
T1 sequence (looked up): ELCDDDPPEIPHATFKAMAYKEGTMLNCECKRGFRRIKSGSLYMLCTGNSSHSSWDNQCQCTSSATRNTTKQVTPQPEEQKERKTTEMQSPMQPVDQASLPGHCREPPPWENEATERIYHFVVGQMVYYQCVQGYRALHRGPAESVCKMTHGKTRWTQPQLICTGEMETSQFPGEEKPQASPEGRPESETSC
Nature of the test: Biacore (SPR); antibody captured on Protein A, CD25 injected.
Method: (§1) Binding was measured by injection of two-fold serial dilutions of CD25 (0 nM to 50 nM; R&D systems) in buffer at 25° C. with a flow rate of 25-30 μL/min for 2 min followed by a dissociation phase of 4-5 min. Association rates (kₒₙ) and dissociation rates (koff) were calculated using a simple one-to-one Langmuir binding model (BIAcore Evaluation Software version 3.2). The equilibrium dissociation constant (Kd) was calculated as the ratio of koff/kₒₙ).

For test [2], the target named is T1, CD25 (R&D systems cat. #223-2A/CF). In words: SPR (Biacore), antibody captured on Protein A, CD25 injected; separate runs.
Method: as §1
Test [3] has the same target. In words: Biacore (SPR); antibody captured on Protein A, CD25 injected. The source holds these as a separate data set. (Surface plasmon resonance follows binding to a sensor surface in real time, without labels.)
Method: as §1
Test [4] shares this target. Nature of the test: Biacore blocking assay; antibody injected over CD25 coupled to a CM5 chip, then 100 nM rh-IL2; blocked ligand IL-2.
Method: The chip was regenerated after each cycle by injection of glycine buffer @ pH 1.5 for 30 sec at 10 μL/min.
Test [5] has the same target. In words: SPR (Biacore).
Method: as §1
The target of test [6] is T2, VEGF (UniProt P15692-4 27-191, limits assumed). Nature of the test: SPR (Biacore), VEGF on CM5 chip, Fab injected.
T2 sequence (P15692 other isoform, or with tags, fused parts or gaps limits assumed): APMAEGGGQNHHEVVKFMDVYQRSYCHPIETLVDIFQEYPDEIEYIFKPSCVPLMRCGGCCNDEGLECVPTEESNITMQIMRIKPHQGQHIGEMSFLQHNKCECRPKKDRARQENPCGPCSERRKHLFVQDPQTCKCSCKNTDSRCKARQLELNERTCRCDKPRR
Method: (§2) For kinetic analysis of anti-VEGF antibodies, VEGF was coupled to an activated CM5 biosensor chip using standard NHS-EDC chemistry by injecting 200 nM VEGF at a flow rate of 2 μL/min for 10 min. […] Association rates (kₒₙ) and dissociation rates (koff) were calculated using a simple one-to-one Langmuir binding model (BIAcore Evaluation Software version 3.2). The equilibrium dissociation constant (Kd) was calculated as the ratio of koff/kₒₙ.
The target in test [7] is T2, VEGF. Nature of the test: Biacore (SPR); Fab injected over immobilized VEGF.
Method: as §2
Test [8] addresses T2, VEGF. In words: Biacore (SPR); Fab injected over immobilized VEGF. This is another data set of the same source.
Method: as §2
Test [9] has as its target T1, CD25 (R&D systems cat. #223-2A/CF). In words: SPR (Biacore), single variant in H1L1 background.
Method: as §1
Test [10] has as its target T3, TNFα (UniProt P01375 77-233). Nature of the test: SPR (Biacore), TNFα on CM5 chip, Fab injected; mean of two runs ± SD.
Method: (§3) For kinetic analysis of anti-TNFα antibodies, TNFα was coupled to an activated CM5 biosensor chip using standard NHS-EDC chemistry by injecting 200 nM TNFα at a flow rate of 2 μL/min for 10 min. […] For subsequent cycles, the chip was regenerated using pH4.0 acetate buffer. Association rates (kₒₙ) and dissociation rates (koff) were calculated using a simple one-to-one Langmuir binding model (BIAcore Evaluation Software version 3.2). The equilibrium dissociation constant (Kd) was calculated as the ratio of koff/kₒₙ.
Test [11] has as its target T3, TNFα. Nature of the test: SPR (Biacore), TNFα on CM5 chip, Fab injected.
Method: as §3
The target of test [12] is T3, TNFα. Nature of the test: Biacore (SPR); Fab injected over immobilized TNFα.
Method: as §3

From patent publication US20100004431A1 (Xencor, published 2010) come the findings set out here.

Where two headings read alike, the source gives them in different places.

T3 sequence (P01375 77-233 limits assumed): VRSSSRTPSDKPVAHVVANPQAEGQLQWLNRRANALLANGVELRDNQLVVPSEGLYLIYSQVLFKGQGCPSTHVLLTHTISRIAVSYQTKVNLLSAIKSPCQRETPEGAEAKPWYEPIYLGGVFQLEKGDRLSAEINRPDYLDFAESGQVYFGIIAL

B1: anti-CD25 H0L0 (antibody, V domains shown)
VH: QVQLQQSGAELAKPGASVKMSCKASGYTFTSYRMHWVKQRPGQGLEWIGYINPSTGYTEYNQKFKDKATLTADKSSSTAYMQLSSLTFEDSAVYYCARGGGVFDYWGQGTTLTVSS
VL: QIVLTQSPAIMSASPGEKVTITCSASSSISYMHWFQQKPGTSPKLWIYTTSNLASGVPARFSGSGSGTSYSLTISRMEAEDAATYYCHQRSTYPLTFGSGTKLELK
notes: Chimeric form of the anti-TAC antibody, in IgG1 format; also called chimeric anti-CD25 H0L0; anti-TAC H0L0
Regarding B1, the Kd is 0.26 nM in test [1], 0.09 to 0.3 nM in test [2] and 0.09 nM in test [3]. The koff in [1] amounted to 0.00018 s⁻¹; in test [3] it was 0.00013 s⁻¹. Also, the figures for the kon in test [1] and in test [3] were 670000 M⁻¹ s⁻¹ and 1.6e+06 M⁻¹ s⁻¹, respectively. In addition, the “IC50 (read off the curve)” value in test [4] was around 40 nM.

B2: anti-CD25 H1.12L1.20 (antibody, V domains shown)
VH: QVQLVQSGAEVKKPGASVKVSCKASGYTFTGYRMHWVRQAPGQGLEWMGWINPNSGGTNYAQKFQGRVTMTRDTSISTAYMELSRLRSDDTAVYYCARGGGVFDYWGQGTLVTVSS
VL: EIVLTQSPATLSLSPGERATLSCRASQSVSYLHWYQQKPGQAPRLLIYTTSNRATGIPARFSGSGSGTDFTLTISSLEPEDFAVYYCHQRSTYPLTFGSGTKLEIK
notes: IgG1 format; It has twenty-two mutations against anti-CD25 H1L1; copies: 2 + 2
In [1], B2 had a Kd of 0.17 nM, an off-rate (koff) of 0.00013 s⁻¹ and a kon of 750000 M⁻¹ s⁻¹. For the same molecule, the “IC50 (read off the curve)” value in [4] was around 40 nM. The “fold tighter binding than anti-CD25 H0L0” value in [5] was around 1.5 fold.

B3: anti-VEGF H1.33L1.51 (Fab, V domains shown)
VH: QVQLVQSGSELKKPGASVKVSCKASGYTFTNYGMNWVRQAPGQGLEWMGWINTYTGNPTYAQGFTGRFVFSLDTSVSTAYLQISSLKAEDTAVYYCAKYPHYYGSSHWYFDVWGAGTLVTVSS
VL: DIQMTQSPSSLSASVGDRVTITCQASQDISNYLNWYQQKPGKAPKVLIYFTSSLHSGVPSRFSGSGSGTDYTLTISSLQPEDFATYYCQQYDNLPWTFGGGTKLEIK
notes: Fab format, purified by Ni-NTA chromatography
With B3, the “fold difference in affinity against the chimeric antibody anti-VEGF H0L0” value with VEGF [6] was at most 3 fold. In the test with VEGF [7], the “Fold change in Kd vs. H0L0” value is -2.5 fold, binding was characterised by a dissociation constant (Kd) of 3.5 nM, the koff was 0.00029 s⁻¹ and the kon amounted to 83000 M⁻¹ s⁻¹.

B4: anti-VEGF H1.33L1.55 (Fab, V domains shown)
VH: QVQLVQSGSELKKPGASVKVSCKASGYTFTNYGMNWVRQAPGQGLEWMGWINTYTGNPTYAQGFTGRFVFSLDTSVSTAYLQISSLKAEDTAVYYCAKYPHYYGSSHWYFDVWGAGTLVTVSS
VL: DIQMTQSPSSLSASVGDRVTITCQASQDISNYLNWYQQKPGKAPKVLIYFASNLETGVPSRFSGSGSGTDYTLTISSLQPEDFATYYCQQYDNLPWTFGGGTKLEIK
notes: as for B3
In the case of B4, the “fold difference in affinity against the chimeric antibody anti-VEGF H0L0” value with VEGF [6] was at most 3 fold. Moreover, in the test with VEGF [8], the “Fold affinity change relative to H0L0” value is -2.7 fold. Also, in the test with VEGF [7], the “Fold change in Kd vs. H0L0” value is -2.7 fold, binding was characterised by a dissociation constant (Kd) of 3.8 nM, the koff is 0.00028 s⁻¹ and the kon is 80000 M⁻¹ s⁻¹.

B5: anti-CD25 H1L1 single variant VH I69M (antibody, IgG1, V domains shown)
VH: QVQLVQSGAEVKKPGASVKVSCKASGYTFTSYRMHWVRQAPGQGLEWMGYINPSTGYTEYNQKFQGRVTMTADKSISTAYMELSRLRSDDTAVYYCARGGGVFDYWGQGTLVTVSS
VL: QIVLTQSPATLSLSPGERATLSCRASSSISYMHWFQQKPGQSPQLLIYTTSNLASGVPARFSGSGSGTDYTLTISSLQPEDFAVYYCHQRSTYPLTFGSGTKLEIK
notes: IgG1 format
As for B5, the “fold increase in affinity against anti-CD25 H1L1” value in test [9] amounted to 2.4 fold. In test [3], the affinity, expressed as Kd, was 0.13 nM; the koff is 0.00026 s⁻¹; the kon amounted to 2e+06 M⁻¹ s⁻¹.

B6: anti-CD25 H1.23L1.43 (antibody, IgG1, V domains shown)
VH: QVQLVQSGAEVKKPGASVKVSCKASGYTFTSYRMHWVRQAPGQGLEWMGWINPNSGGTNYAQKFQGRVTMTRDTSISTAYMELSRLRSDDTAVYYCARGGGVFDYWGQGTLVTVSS
VL: EIVLTQSPATLSLSPGERATLSCRASQSVSYLHWYQQKPGQAPRLLIYTTSNRATGIPARFSGSGSGTDYTLTISSLQPEDFAVYYCHQRSTYPLTFGSGTKLEIK
notes: IgG1 format
Take B6: in [1], the “Fold change in Kd vs. H0L0” value was 1.6 fold, the Kd was 0.16 nM, the koff is 0.00012 s⁻¹ and the on-rate (kon) was 730000 M⁻¹ s⁻¹. In [4], the “IC50 (read off the curve)” value is around 40 nM.

B7: Anti-TNFα H1.67L1.33 (Fab, V domains shown)
VH: EVQLVESGGGLVQPGGSLKLSCAASGFTFSNHWMNWVRQASGKGLEWVGEIRSKAISYATHYAASVKGRFTISRDDSKNTAYLQMNSLKTEDTAVYYCSRNYYGSTYDYWGQGTLVTVSS
VL: EIVLTQSPDFQSVTPKEKVTITCRASQFIGSSLHWYQQKPDQSPKLLIKYASESFSGVPSRFSGSGSGTDFTLTINSLEAEDAATYYCQQSHSWPFTFGSGTKLEIK
notes: Fab format
In the test with TNFα [10], B7 came in with a Kd of 3.8 nM, a koff of 0.000776 s⁻¹ and a kon of 200000 M⁻¹ s⁻¹. The “fold difference in affinity against the chimeric antibody anti-TNFα H0L0” value with TNFα [11] was at most 3 fold.

B8: Anti-TNFα H1.103L1.33 (Fab, V domains shown)
VH: EVQLVESGGGLVQPGGSLKLSCAASGFIFSNHWMNWVRQASGKGLEWVGEIRSKANNYATHYAASVKGRFTISRDDSKNTAYLQMNSLKTEDTAVYYCSRNYYGSTYDYWGQGTLVTVSS
VL: EIVLTQSPDFQSVTPKEKVTITCRASQFIGSSLHWYQQKPDQSPKLLIKYASESFSGVPSRFSGSGSGTDFTLTINSLEAEDAATYYCQQSHSWPFTFGSGTKLEIK
notes: Fab format; It has thirteen more mutations than anti-TNFα H1L1; also called anti-TNF H1.103L1.33
Take B8: in the test with TNFα [12], the “Fold affinity change relative to H0L0” value is -1.3 fold. Further, in the test with TNFα [10], the affinity, expressed as Kd, was 3.1 nM; the koff is 0.00092 s⁻¹; the kon came out at 292000 M⁻¹ s⁻¹. For the same molecule, in the test with TNFα [11], the “fold difference in affinity against the chimeric antibody anti-TNFα H0L0” value was at most 3 fold.

One may read the Kd as a measure of binding affinity in units of concentration. Low readings indicate tighter binding, high ones weaker binding. A word on the koff: it is the first-order rate constant of dissociation. A low value points to a long-lived complex. For orientation: kon means the second-order rate constant of association.
